Data on two molecules can be found in patent publication US20240076386A1 (Pfizer, published 2024).

The target in experiment [1] is T1, cynomolgus monkey E-selectin extracellular domain with 10 His purification tail (cynomolgus monkey, UniProt P16581 22-554 (human entry)).
T1 construct: also called cynomolgus E-selectin; truncated cynomolgus monkey E-selectin
T1 chain: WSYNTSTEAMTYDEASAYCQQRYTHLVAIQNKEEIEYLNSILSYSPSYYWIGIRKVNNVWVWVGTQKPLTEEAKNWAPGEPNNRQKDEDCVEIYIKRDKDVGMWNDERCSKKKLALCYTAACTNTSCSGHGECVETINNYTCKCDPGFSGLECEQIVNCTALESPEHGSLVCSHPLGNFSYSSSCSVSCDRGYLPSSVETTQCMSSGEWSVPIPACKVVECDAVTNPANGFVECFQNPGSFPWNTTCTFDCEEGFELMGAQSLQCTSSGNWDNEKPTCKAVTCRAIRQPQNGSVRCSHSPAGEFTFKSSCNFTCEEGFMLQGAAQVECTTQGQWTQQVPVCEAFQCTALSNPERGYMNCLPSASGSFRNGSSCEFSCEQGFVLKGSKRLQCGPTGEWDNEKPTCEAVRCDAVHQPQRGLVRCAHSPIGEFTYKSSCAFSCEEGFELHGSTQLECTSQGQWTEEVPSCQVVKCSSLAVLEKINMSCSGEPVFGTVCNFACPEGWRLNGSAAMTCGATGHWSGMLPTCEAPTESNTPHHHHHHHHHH
The experiment is described as follows: SPR, antibody captured, E-selectin analyte. The protocol: Final immobilization level of the capture antibody was approximately 10,000 resonance units (RU). The running buffer for immobilization and kinetics was HBS-EP+(10 mM 4-(2-hydroxyethyl)-1-piperazineethanesulfonic acid (HEPES) pH 7.4, 150 mM sodium chloride, 3 mM ethylenediaminetetraacetic acid (EDTA), 0.05% (v/v) Tween-20).
To characterize binding of antibodies to human, cynomolgus monkey, and mouse E-selectin, an antibody was diluted to 0.5 μg/mL in HBS-EP+ and captured by the anti-human IgG immobilized on flow cells 2, 3 and 4 for 30 seconds to 1 minute at a flow rate of 10 μL/minute to achieve a capture level of 70 to 300 RU. Flow cell 1 was used as a reference surface. […] HBS-EP+ buffer cycles collected for each captured antibody were used for double-referencing (Myszka D G. J. Mol. Recognition 1999; 12(5):279-84). At the end of each cycle, the entire anti-IgG surface was regenerated by a 30 second pulse of 3 M MgCl₂ and a 30 second pulse of ionic buffer (1.83 M MgCl₂, 0.92 M Urea, 1.83 M Guanidine HCl, pH 7.4) (Andersson K. Analy. Chem. 1999; 71(13): 2475-81). Kinetic assays were conducted at 25° C. at a collection rate of 10 Hertz (Hz) on a BIAcore™ T200 instrument (GE Healthcare). Rate constants and affinities were determined by fitting the data to a 1:1 binding model in BIAcore™ T200 Evaluation software version 3.0 (GE Healthcare).
This was done by first binding the antibody to immobilized anti-human IgG. After antibody capture, dilutions of the E-selectin proteins were flowed over and the association rate constant (ka), disassociation rate constant (kd), t½, and KD values were determined for binding to human and cynomolgus E-selectin (Table 13).
In general terms: Surface plasmon resonance follows binding to a sensor surface in real time, without labels.

In experiment [2] the target is T2, recombinant histidine-tagged human E-selectin (Sino Biologicals; 13025-H08H) (human, UniProt P16581 22-556).
T2 construct: also called recombinant human E-selectin; soluble recombinant human E-selectin
T2 sequence (looked up): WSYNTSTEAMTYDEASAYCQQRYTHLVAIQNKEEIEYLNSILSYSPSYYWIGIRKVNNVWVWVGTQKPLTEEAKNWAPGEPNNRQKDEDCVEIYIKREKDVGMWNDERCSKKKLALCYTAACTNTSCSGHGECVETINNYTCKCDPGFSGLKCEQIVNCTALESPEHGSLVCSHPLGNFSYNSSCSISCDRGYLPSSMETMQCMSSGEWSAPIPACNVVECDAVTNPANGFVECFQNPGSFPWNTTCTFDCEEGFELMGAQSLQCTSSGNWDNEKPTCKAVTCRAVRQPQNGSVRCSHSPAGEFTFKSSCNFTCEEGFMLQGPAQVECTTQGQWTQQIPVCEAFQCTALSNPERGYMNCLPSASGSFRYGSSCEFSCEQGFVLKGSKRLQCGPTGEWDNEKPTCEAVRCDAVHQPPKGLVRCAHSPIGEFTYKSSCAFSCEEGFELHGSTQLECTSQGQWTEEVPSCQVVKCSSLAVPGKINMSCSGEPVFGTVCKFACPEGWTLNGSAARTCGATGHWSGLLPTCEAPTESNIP
The experiment is described as follows: neutralization of sialyl Lewis A ligand binding, soluble recombinant protein, competition ELISA. On the procedure:
(§1) Recombinant histidine-tagged E-selectin; cynomolgus monkey E-selectin (Sino Biologicals; 190169-C08H) and human E-selectin (Sino Biologicals; 13025-H08H) stock solutions were prepared to a final concentration of 3 μg/mL in phosphate buffered saline (PBS) without calcium and magnesium. One hundred μL per well of the diluted recombinant E-selectin protein was added into a Ni-NTA HisSorb 96 well plate (Qiagen, 35061) and plates were incubated on an orbital shaker at room temperature for 2 hours. Sialyl Lewis A polyacrylamide biotin, a synthetic E-selectin ligand (GlycoTech corporation 01-044), was conjugated to streptavidin HRP (horse radish peroxidase) (Ultra Streptavidin HRP, Thermo Scientific N504) and diluted in assay diluent containing 2 mM calcium chloride (BD OptEIA buffer; BD Biosciences, 555213).
In general terms: An ELISA detects its analyte on a solid surface through an enzyme-linked reagent.

For experiment [3], the target named is T3, recombinant histidine-tagged cynomolgus monkey E-selectin (Sino Biologicals; 190169-C08H) (cynomolgus monkey, UniProt A0A2K5U7H9 22-554).
T3 construct: also called recombinant cynomolgus monkey E-selectin
T3 sequence: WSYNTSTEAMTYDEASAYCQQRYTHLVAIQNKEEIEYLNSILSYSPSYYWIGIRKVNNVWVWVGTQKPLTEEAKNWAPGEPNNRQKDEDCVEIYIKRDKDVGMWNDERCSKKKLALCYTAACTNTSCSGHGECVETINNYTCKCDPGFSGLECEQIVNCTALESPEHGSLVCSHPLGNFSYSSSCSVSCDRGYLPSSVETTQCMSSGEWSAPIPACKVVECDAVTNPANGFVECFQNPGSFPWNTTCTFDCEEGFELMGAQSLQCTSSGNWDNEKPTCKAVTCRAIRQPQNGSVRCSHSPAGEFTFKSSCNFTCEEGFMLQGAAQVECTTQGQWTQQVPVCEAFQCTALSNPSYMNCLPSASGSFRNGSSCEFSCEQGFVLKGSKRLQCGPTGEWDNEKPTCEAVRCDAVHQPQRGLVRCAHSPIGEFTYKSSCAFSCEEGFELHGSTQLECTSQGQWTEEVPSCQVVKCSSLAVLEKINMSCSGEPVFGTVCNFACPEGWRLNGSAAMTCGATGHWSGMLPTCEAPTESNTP
Described as above. On the procedure:
as §1

A word on the Kd: it is the constant that tells how readily two partners part at equilibrium. As usually defined, the koff is the first-order rate constant of dissociation. One may read the kon as the second-order rate constant of association. As usually defined, the t½ is the time needed for the level to fall by half in the phase considered. In general, IC50 refers to the point on the concentration scale where inhibition reaches its midpoint.

B1: humanized anti-E-selectin antibody 0841 (antibody, human IgG1, kappa, V domains shown)
VH: EVQLVESGGGLVQPGGSLRLSCAASGYNIRSSYMHWVRQAPGKGLEWVARIDPANGNTIYAEKFKIRFTISADNAKNSAYLQMNSLRAEDTAVYYCAMDLYSTSEYWGQGTLVTVSS
VL: DIQMTQSPSSLSASVGDRVTITCKTSQNINRYLNWYQQKPGKAPKLLIYNANSLQTGVPSRFSGSGSGTDFTLTISSLQPEDFATYFCLQDNSWPLTFGQGTKVEIKR
notes: effector-null human IgG1, kappa
In experiment [1], B1 gave a Kd of 138 nM, a koff of 0.0252 s⁻¹, a kon of 182000 M⁻¹ s⁻¹ and a t½ of 27.6 s.

B2: optimized anti-E-selectin antibody 1444 (antibody, human IgG1, kappa, V domains shown)
VH: EVQLVESGGGLVQPGGSLRLSCAASGYAIRSAYMHWVRQAPGKGLEWVARIDPANGNTIYVDSVTGRFTISADNAKNSAYLQMNSLRAEDTAVYYCAMDLYSTSEYWGQGTLVTVSS
VL: DIQMTQSPSSLSASVGDRVTITCKTSQNIERYLNWYQQKPGKAPKLLIYAASSLQSGVPSRFSGSGSGTDFTLTISSLQPEDFATYFCLQDNAWPLTFGQGTKVEIKR
notes: as for B1
Consider B2, for which the values for the IC50 in experiment [2] and in experiment [3] were 2.87 to 3.01 nM and 2.39 to 2.91 nM, respectively.
